In patent publication US20100034812A1:
Read-outs that look alike come from different tables or passages of the source.

Legend:
[1] = biological target: recombinant birch pollen allergen Bet v 1 (Betula verrucosa) (UniProt P15494); experiment: ELISA, IgE of control serum on rBet v 1 after clone 12
[2] = biological target: recombinant birch pollen allergen Bet v 1 (Betula verrucosa) (UniProt P15494); experiment: ELISA, IgE of control serum on rBet v 1 after clone 10
[3] = biological target: recombinant birch pollen allergen Bet v 1 (Betula verrucosa) (UniProt P15494); experiment: ELISA, IgE of control serum on rBet v 1 after clone 13
[4] = biological target: recombinant birch pollen allergen Bet v 1 (Betula verrucosa) (UniProt P15494); experiment: ELISA, IgE of non-allergic control serum on rBet v 1
[5] = biological target: recombinant birch pollen allergen Bet v 1 (Betula verrucosa) (UniProt P15494); experiment: ELISA, IgE of control serum on rBet v 1 after clone 2
[6] = biological target: recombinant birch pollen allergen Bet v 1 (Betula verrucosa) (UniProt P15494); experiment: as above; remark: listed apart in the source
[7] = biological target: recombinant birch pollen allergen Bet v 1 (Betula verrucosa) (UniProt P15494); experiment: ELISA, IgE of control serum on rBet v 1 after clone 12; remark: listed apart in the source
[8] = biological target: recombinant birch pollen allergen Bet v 1 (Betula verrucosa) (UniProt P15494); experiment: ELISA, IgE of control serum on rBet v 1 after clone 10; remark: listed apart in the source
[9] = biological target: recombinant birch pollen allergen Bet v 1 (Betula verrucosa) (UniProt P15494); experiment: ELISA, IgE of control serum on rBet v 1 after clone 4
[10] = biological target: recombinant birch pollen allergen Bet v 1 (Betula verrucosa) (UniProt P15494); experiment: ELISA, IgE of non-allergic control serum on rBet v 1; remark: listed apart in the source
[11] = biological target: recombinant birch pollen allergen Bet v 1 (Betula verrucosa) (UniProt P15494); experiment: ELISA, IgE of control serum on rBet v 1 after clone 4; remark: listed apart in the source
[12] = biological target: recombinant birch pollen allergen Bet v 1 (Betula verrucosa) (UniProt P15494); experiment: ELISA, IgE of control serum on rBet v 1 after clone 13; remark: listed apart in the source

Chain of UniProt P15494 (P15494 2-160 limits assumed): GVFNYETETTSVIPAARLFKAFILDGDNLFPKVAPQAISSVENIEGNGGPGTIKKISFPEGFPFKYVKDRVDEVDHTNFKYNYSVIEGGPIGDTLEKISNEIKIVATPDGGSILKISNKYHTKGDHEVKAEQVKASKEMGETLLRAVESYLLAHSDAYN

OD with mAb [1]: 0.14 OD
OD with mAb [2]: 0.03 OD
OD with mAb [3]: 0.15 OD
OD without mAb [4]: 0.03 OD
OD with mAb [5]: 0.09 OD
OD with mAb [6]: 0.03 OD
OD with mAb [7]: 0.04 OD
OD with mAb [8]: 0.09 OD
OD with mAb [9]: 0.09 OD
OD without mAb [10]: 0.06 OD
OD with mAb [11]: 0.04 OD
OD with mAb [12]: 0.08 OD
Substance: serum from a non-allergic person (antibody)
